The values that follow come from patent US20070071746A1 (AstraZeneca / MedImmune, published 2007).

Experiment [1] concerns the target T1, mouse AMCase truncated form lacking the C-terminal chitin binding domain (mouse, UniProt Q91XA9 22-398, limits assumed).
T1 construct: also called mAMCase TR
The experiment can be described thus: ELISA. In general terms: ELISA stands for enzyme-linked immunosorbent assay.

For experiment [2], the target named is T2, mouse chitotriosidase (mouse, UniProt Q9D7Q1 22-464).
T2 construct: Recombinant from HEK293; non-tagged versions also made; also called mChT; mouse ChT
The experiment can be described thus: ELISA.

The target of experiment [3] is T3, Ym1 (mouse, UniProt O35744 22-398).
T3 construct: Recombinant from HEK293; non-tagged versions also made; also called chitinase 3-like 3; ECF-L
Put plainly: ELISA.

In experiment [4] the target is T4, Ym2 (mouse, UniProt Q91Z98 22-402).
T4 construct: Recombinant from HEK293; non-tagged versions also made; also called chitinase 3-like 4
The experiment can be described thus: ELISA.

Experiment [5] has as its target T5, mouse YKL-40/BRP-39 (mouse, UniProt Q61362 30-389).
T5 construct: Recombinant from HEK293; non-tagged versions also made; also called mYKL40/BRP39; mYKL-40
The experiment can be described thus: ELISA.

The target of experiment [6] is T6, human AMCase C-terminally truncated, lacking the chitin binding domain (human, UniProt Q9BZP6 22-398, limits assumed).
T6 construct: Biotin labeled in the galectin ELISA; also called hAMCase TR
The experiment can be described thus: ELISA.

In experiment [7] the target is T7, human chitotriosidase (human, UniProt Q13231 22-466).
T7 construct: Recombinant from HEK293; non-tagged versions also made; also called hChT; ChT
Put plainly: ELISA.

In experiment [8] the target is T8, human YKL-39 (human, UniProt Q15782 27-390).
T8 construct: Recombinant from HEK293; non-tagged versions also made; also called hYKL-39; chondrocyte protein 39
T8 sequence: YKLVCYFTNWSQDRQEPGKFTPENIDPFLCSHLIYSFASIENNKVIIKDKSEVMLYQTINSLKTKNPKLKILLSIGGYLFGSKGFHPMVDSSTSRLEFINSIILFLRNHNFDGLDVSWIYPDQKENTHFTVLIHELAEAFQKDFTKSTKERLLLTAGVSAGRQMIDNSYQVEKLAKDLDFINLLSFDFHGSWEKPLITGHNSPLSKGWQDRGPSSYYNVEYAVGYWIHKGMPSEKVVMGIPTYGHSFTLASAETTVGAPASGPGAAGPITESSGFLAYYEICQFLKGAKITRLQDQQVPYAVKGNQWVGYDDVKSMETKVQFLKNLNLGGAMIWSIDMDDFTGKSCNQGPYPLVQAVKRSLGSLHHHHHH
Put plainly: ELISA.

In experiment [9] the target is T9, human YKL-40 (human, UniProt P36222 22-383).
T9 construct: Recombinant from HEK293; non-tagged versions also made; also called hYKL-40; chitinase 3-like 1
Put plainly: ELISA.

Experiment [10] deals with T10, mouse acidic mammalian chitinase (AMCase), full length (mouse, UniProt Q91XA9 22-473).
T10 construct: Recombinant, secreted from HEK293 cells and purified by its His tag; Biotin labeled in the galectin ELISA; also called mAMCase; mouse AMCase
The experiment can be described thus: ELISA; + = 0.20 to 0.99 OD at 62.5 ng/ml.

The target of experiment [11] is T11, mouse AMCase E140A (mouse, UniProt Q91XA9 22-473).
T11 construct: Full length point mutant without chitinase activity; also called mAMCase E140A
Put plainly: ELISA; + = 0.20 to 0.99 OD at 62.5 ng/ml.

The target in experiment [12] is T12, mouse AMCase D136A (mouse, UniProt Q91XA9 22-473).
T12 construct: Full length point mutant without chitinase activity; also called mAMCase D136A
Put plainly: ELISA; ++ = 1.00 to 2.49 OD at 62.5 ng/ml.

T5 sequence (Q61362 other isoform, or with tags, fused parts or gaps limits assumed): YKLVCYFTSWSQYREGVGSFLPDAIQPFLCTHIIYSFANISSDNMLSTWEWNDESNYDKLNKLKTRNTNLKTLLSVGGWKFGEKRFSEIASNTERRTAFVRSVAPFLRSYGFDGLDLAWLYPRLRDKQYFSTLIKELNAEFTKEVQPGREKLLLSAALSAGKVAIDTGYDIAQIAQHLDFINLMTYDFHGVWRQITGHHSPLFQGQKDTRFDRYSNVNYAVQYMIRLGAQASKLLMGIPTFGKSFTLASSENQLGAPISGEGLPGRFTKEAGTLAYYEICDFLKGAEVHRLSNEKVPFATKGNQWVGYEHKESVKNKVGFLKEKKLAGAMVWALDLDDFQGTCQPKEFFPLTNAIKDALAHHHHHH
T2 sequence (Q9D7Q1 other isoform, or with tags, fused parts or gaps limits assumed): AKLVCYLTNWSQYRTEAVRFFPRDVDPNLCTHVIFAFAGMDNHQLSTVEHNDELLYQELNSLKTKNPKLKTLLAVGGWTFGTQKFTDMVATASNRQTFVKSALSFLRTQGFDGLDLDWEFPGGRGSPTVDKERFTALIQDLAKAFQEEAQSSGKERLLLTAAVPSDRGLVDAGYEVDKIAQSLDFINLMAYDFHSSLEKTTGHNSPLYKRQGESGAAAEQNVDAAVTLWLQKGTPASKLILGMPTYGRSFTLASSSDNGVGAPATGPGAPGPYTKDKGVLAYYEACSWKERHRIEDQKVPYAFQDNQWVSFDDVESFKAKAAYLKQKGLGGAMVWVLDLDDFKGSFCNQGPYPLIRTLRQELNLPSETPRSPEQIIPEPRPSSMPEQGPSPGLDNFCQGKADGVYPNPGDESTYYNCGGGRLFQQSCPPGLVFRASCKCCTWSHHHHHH
T1 sequence (Q91XA9 22-398 limits assumed): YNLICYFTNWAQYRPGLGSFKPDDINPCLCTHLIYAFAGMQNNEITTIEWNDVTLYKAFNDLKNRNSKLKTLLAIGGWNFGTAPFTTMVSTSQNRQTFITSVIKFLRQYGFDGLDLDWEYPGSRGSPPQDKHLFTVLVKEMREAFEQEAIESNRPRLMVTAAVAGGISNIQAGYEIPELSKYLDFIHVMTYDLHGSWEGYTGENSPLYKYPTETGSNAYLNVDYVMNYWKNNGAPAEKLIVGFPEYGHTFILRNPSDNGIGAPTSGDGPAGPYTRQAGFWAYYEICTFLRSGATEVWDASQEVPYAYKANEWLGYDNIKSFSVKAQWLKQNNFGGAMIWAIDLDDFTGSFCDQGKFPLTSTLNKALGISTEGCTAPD
T11 sequence (Q91XA9 22-473 E140A limits assumed): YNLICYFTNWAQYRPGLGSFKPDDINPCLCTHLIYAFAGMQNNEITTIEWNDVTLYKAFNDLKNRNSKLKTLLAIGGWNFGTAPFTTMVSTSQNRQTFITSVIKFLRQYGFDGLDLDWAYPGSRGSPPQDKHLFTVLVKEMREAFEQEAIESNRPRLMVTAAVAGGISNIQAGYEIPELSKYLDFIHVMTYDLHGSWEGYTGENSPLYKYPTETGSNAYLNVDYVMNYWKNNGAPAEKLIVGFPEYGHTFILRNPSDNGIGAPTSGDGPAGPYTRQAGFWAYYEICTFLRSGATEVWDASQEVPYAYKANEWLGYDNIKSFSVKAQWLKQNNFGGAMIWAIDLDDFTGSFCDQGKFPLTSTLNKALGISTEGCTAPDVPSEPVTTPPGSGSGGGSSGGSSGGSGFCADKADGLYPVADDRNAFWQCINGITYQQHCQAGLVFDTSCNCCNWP
T10 sequence (Q91XA9 other isoform, or with tags, fused parts or gaps limits assumed): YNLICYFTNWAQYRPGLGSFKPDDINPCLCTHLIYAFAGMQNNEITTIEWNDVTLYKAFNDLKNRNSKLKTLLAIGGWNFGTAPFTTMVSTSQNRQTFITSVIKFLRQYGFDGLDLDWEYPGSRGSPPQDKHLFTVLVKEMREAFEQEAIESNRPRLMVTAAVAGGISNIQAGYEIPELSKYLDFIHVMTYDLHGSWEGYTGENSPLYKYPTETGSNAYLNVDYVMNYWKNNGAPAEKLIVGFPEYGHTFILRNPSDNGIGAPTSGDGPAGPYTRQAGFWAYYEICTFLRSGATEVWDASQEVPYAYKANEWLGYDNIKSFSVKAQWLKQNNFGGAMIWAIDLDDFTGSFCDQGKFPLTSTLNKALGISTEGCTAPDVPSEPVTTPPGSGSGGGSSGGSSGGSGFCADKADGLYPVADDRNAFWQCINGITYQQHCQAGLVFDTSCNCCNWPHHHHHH
T4 sequence (Q91Z98 other isoform, or with tags, fused parts or gaps limits assumed): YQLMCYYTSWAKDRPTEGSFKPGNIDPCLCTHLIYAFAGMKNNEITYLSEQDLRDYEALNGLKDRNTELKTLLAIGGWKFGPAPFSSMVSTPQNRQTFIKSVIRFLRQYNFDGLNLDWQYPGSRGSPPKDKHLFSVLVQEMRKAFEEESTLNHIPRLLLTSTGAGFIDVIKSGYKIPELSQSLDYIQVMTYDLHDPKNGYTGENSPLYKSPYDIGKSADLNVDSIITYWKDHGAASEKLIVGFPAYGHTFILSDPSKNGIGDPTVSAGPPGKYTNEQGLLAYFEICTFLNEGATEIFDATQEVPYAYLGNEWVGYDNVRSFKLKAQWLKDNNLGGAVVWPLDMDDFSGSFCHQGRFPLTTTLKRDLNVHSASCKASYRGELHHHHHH
T6 sequence (Q9BZP6 22-398 limits assumed): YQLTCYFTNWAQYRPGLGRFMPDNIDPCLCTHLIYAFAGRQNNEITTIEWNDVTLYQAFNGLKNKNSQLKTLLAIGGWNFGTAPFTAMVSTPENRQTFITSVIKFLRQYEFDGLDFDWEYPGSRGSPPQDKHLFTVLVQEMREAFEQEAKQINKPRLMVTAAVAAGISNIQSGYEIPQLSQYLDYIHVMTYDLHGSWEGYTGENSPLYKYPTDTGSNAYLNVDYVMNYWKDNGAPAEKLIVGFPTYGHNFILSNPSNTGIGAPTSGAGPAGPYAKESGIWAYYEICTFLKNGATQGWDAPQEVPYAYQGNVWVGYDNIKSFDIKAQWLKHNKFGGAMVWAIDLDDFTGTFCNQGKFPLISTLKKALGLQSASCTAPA
T7 sequence (Q13231 other isoform, or with tags, fused parts or gaps limits assumed): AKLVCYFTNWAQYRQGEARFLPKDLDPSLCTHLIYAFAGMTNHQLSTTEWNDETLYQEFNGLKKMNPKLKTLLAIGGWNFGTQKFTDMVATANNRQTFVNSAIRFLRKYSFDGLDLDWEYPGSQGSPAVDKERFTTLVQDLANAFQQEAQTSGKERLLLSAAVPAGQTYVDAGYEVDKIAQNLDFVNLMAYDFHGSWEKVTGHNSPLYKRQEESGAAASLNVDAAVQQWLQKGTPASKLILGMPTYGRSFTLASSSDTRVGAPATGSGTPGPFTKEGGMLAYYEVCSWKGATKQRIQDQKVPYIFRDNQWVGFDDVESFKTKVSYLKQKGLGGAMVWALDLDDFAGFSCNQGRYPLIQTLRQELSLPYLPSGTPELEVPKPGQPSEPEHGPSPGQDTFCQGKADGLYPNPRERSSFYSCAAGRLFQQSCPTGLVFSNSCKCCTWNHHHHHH
T9 sequence (P36222 other isoform, or with tags, fused parts or gaps limits assumed): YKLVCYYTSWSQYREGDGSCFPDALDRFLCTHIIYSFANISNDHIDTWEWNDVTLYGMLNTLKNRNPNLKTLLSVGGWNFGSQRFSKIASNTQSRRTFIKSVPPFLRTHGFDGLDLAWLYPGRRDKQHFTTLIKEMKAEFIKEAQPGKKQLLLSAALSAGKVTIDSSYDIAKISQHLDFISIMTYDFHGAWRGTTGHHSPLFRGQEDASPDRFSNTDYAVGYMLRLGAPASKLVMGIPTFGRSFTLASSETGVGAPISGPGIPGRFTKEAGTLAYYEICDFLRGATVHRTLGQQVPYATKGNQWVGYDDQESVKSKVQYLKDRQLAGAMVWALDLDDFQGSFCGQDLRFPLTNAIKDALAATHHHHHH
T3 sequence (O35744 other isoform, or with tags, fused parts or gaps limits assumed): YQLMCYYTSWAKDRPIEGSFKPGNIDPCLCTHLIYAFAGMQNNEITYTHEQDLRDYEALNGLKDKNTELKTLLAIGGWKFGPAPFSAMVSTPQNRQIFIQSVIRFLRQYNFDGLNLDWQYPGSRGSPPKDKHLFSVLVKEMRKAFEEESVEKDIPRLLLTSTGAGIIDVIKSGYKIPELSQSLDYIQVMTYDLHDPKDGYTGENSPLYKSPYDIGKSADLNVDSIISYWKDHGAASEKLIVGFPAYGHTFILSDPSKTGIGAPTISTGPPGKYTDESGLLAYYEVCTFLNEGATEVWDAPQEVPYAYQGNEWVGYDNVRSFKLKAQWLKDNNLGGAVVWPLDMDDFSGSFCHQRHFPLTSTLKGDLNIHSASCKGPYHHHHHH
T12 sequence (Q91XA9 22-473 D136A limits assumed): as the sequence (Q91XA9 22-473 E140A limits assumed) above, with D115A, A119E counted along it

B1: Z8 (antibody, V domains shown)
VH: EVQLLESGGGLVQPGGSLRLSCAASGFTFSPYLMWWVRQAPGKGLEWVSYISSSGGYTSYADSVKGRFTISRDNSKNTLYLQMNSLRAEDTAMYYCARMYYYDSSGYPSFDYWGQGTLVTVSS
VL: QSALTQPPSASGTPGQRVTISCSGSGSNIGSNTVNWYQQLPGTAPKLLIYSSNQRPSGVSDRFSGSKSVASASLAINGLQSEDEADYYCAGWDDSLNGPVFGGGTKLTVL
notes: Fully human anti-AMCase antibody from phage display, converted to full length IgG
B1: the binding result in [1], in [2], in experiment [3], in experiment [4], in [5] and in experiment [6] was “no binding” in each case. Moreover, the binding result in [7], in [8] and in experiment [9] was “no binding” each time. In addition, the “ELISA OD at 62.5 ng/ml antibody” value in [10] lay in the range of 0.2 to 0.99 od; in [11] it was 0.2 to 0.99 od; in [12], 1 to 2.49 od.
